This passage reports Kd and average NCS-1 bound (%) results from paper PMC4180279.

Experiment [1] concerns the target Cav2.1 P/Q-type calcium channel IQ domain (Homo sapiens) (UniProt O00555). In words: ITC. The note with it: cited from earlier work.
The target in experiment [2] is GST-P/Q, residues 1898-2035 of the rat P/Q channel α1 subunit (Cav2.1) C-terminal tail (rat). Put plainly: pull-down; 5 μM GST fusion protein immobilised on glutathione-agarose; 5 μM GST-free NCS-1 or CaM added; 150 mM KCl, 20 mM HEPES pH 7.4, 10% glycerol, 5 mM NTA, 5 mM EGTA, 1 mM DTT, 0.1% NP-40, with 1 μM free Ca2+; 1 h, 4 °C; Western blot, densitometry normalised to NCS-1 on GST-PQ with Ca2+ = 100%. On the technique in general: Immunoblotting shows a protein as a band on a membrane.

Sequence of Neuronal calcium sensor-1 (NCS-1), GST-free recombinant protein from the GST-NCS-1 plasmid (P62166 whole entry): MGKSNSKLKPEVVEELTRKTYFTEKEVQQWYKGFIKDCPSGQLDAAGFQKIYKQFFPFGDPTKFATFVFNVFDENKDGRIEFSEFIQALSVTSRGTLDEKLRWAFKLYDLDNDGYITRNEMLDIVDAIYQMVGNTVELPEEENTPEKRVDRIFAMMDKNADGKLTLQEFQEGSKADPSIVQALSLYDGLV
Sequence of Cav2.1 P/Q-type calcium channel IQ domain (Homo sapiens) (O00555 1963-1983): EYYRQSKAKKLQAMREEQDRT

Regarding “calmodulin C lobe C lobe (from UniProt P0DP23)”, the Kd (as a rule, the constant that tells how readily two partners part at equilibrium) in experiment [1] is 4.32 nM. In experiment [2], “Neuronal calcium sensor-1 (NCS-1), GST-free recombinant protein from the GST-NCS-1 plasmid (from UniProt P62166 1-190) (natural protein)” showed an average NCS-1 bound (%) of 100%.
